Data on 63 variants can be found in the MegaScale stability set (Tsuboyama et al. 2023).

First the molecules themselves.
B1: EHEE_rd4_0726 (parent)
chain: DIEITTNGEEDAKRVIKELQKRNLEYHIEVHGNQWVIKVR

The data set covers variants of B1. The experiment in a line: folding stability dG (cDNA display proteolysis); higher = more stable. To be noted: PBS, room temperature.
Take DIEITTNGEEDAKRVIKELQKRNLEYHINVHGNQWVIKVR [E29N]: the “folding stability dG” value is 5.88 kJ/mol.

As to DIEITTNGEEDAKRVIKELQKRNLEYHIMVHGNQWVIKVR [E29M], the “folding stability dG” value turned out to be 8.08 kJ/mol.

On to DIEITTNGEEDAKRVIKELQKRNLEYHIDVHGNQWVIKVR [E29D], for which the “folding stability dG” value amounted to 6.53 kJ/mol.

On to DIEITTNGEEDAKRVIKELQKRNLEYHIRVHGNQWVIKVR [E29R], for which the “folding stability dG” value was determined as 7.41 kJ/mol.

Turning to DIEITTNGEEDAKRVIKELQKRNLEYHISVHGNQWVIKVR [E29S], the “folding stability dG” value was 8.97 kJ/mol.

Consider DIEITTNGEEDAKRVIKELQKRNLEYHIAVHGNQWVIKVR [E29A], for which the “folding stability dG” value worked out at 7.14 kJ/mol.

For DIEITTNGEEDAKRVIKELQKRNLEYHIQVHGNQWVIKVR [E29Q], the “folding stability dG” value amounted to 8.36 kJ/mol.

On to DIEITTNGEEDAKRVIKELQKRNLEYHILVHGNQWVIKVR [E29L], for which the “folding stability dG” value amounted to 7.98 kJ/mol.

DIEITTNGEEDAKRVIKELQKRNLEYHIIVHGNQWVIKVR [E29I]: the “folding stability dG” value was found to be 9.69 kJ/mol.

As to DIEITTNGEEDAKRVIKELQKRNLEYHIFVHGNQWVIKVR [E29F], the “folding stability dG” value was 9.51 kJ/mol.

For DIEITTNGEEDAKRVIKELQKRNLEYHIKVHGNQWVIKVR [E29K], the “folding stability dG” value is 6.96 kJ/mol.

As to DIEITTNGEEDAKRVIKELQKRNLEYHIHVHGNQWVIKVR [E29H], the “folding stability dG” value turned out to be 7.43 kJ/mol.

For the variant DIEITTNGEEDAKRVIKELQKRNLEYHIGVHGNQWVIKVR [E29G], the “folding stability dG” value was determined as 3.11 kJ/mol.

For DIEITTNGEEDAKRVIKELQKRNLEYDIEVHGNQWVIKVR [H27D], the “folding stability dG” value was found to be 10.4 kJ/mol.

For the variant DIEITTNGEEDAKRVIKELQKRNLEYLIEVHGNQWVIKVR [H27L], the “folding stability dG” value came to 9.92 kJ/mol.

Take DIEITTNGEEDAKRVIKELQKRNLEYSIEVHGNQWVIKVR [H27S]: the “folding stability dG” value turned out to be 12.8 kJ/mol.

Turning to DIEITTNGEEDAKRVIKELQKRNLEYFIEVHGNQWVIKVR [H27F], the “folding stability dG” value worked out at 10.8 kJ/mol.

For the variant DIEITTNGEEDAKRVIKELQKRNLEYTIEVHGNQWVIKVR [H27T], the “folding stability dG” value was 14 kJ/mol.

Turning to DIEITTNGEEDAKRVIKELQKRNLEYRIEVHGNQWVIKVR [H27R], the “folding stability dG” value is 10.8 kJ/mol.

As for DIEITTNGEEDAKRVIKELQKRNLEYNIEVHGNQWVIKVR [H27N], the “folding stability dG” value stood at 9.1 kJ/mol.

As to DIEITTNGEEDAKRVIKELQKRNLEYCIEVHGNQWVIKVR [H27C], the “folding stability dG” value was 10.9 kJ/mol.

On to DIEITTNGEEDAKRVIKELQKRNLEYQIEVHGNQWVIKVR [H27Q], for which the “folding stability dG” value stood at 10.2 kJ/mol.

DIEITTNGEEDAKRVIKELQKRNLEYMIEVHGNQWVIKVR [H27M]: the “folding stability dG” value was 10.6 kJ/mol.

DIEITTNGEEDAKRVIKELQKRNLEYGIEVHGNQWVIKVR [H27G]: the “folding stability dG” value came out at 6.64 kJ/mol.

On to DIEITTNGEEDAKRVIKELQKRNLEYVIEVHGNQWVIKVR [H27V], for which the “folding stability dG” value was determined as 12 kJ/mol.

For the variant DIEITTNGEEDAKRVIKELQKRNLEYKIEVHGNQWVIKVR [H27K], the “folding stability dG” value is 10.3 kJ/mol.

For DIEITTNGEEDAKRVIKELQKRNLEYIIEVHGNQWVIKVR [H27I], the “folding stability dG” value turned out to be 11.9 kJ/mol.

In the case of DIEITTNGEEDAKRVIKELQKRNLEYAIEVHGNQWVIKVR [H27A], the “folding stability dG” value came to 9.78 kJ/mol.

Turning to DIEITTNGEEDAKRVIKELQKRNLEYYIEVHGNQWVIKVR [H27Y], the “folding stability dG” value was 11.4 kJ/mol.

Consider DIEITTNGEEDAKRVIKELQKRNLEYEIEVHGNQWVIKVR [H27E], for which the “folding stability dG” value was 11.1 kJ/mol.

Regarding DIEITTNGEEDAKRVIKELQKRNLEYWIEVHGNQWVIKVR [H27W], the “folding stability dG” value is 11.2 kJ/mol.

As to DIEITTNGEEDAKRVIKELQKRNLEYHSEVHGNQWVIKVR [I28S], the “folding stability dG” value was found to be 0.937 kJ/mol.

As to DIEITTNGEEDAKRVIKELQKRNLEYHFEVHGNQWVIKVR [I28F], the “folding stability dG” value is 6.17 kJ/mol.

As to DIEITTNGEEDAKRVIKELQKRNLEYHMEVHGNQWVIKVR [I28M], the “folding stability dG” value was determined as 6.75 kJ/mol.

Consider DIEITTNGEEDAKRVIKELQKRNLEYHHEVHGNQWVIKVR [I28H], for which the “folding stability dG” value is -0.314 kJ/mol.

For DIEITTNGEEDAKRVIKELQKRNLEYHLEVHGNQWVIKVR [I28L], the “folding stability dG” value was 8.45 kJ/mol.

Take DIEITTNGEEDAKRVIKELQKRNLEYHKEVHGNQWVIKVR [I28K]: the “folding stability dG” value was -1.22 kJ/mol.

On to DIEITTNGEEDAKRVIKELQKRNLEYHWEVHGNQWVIKVR [I28W], for which the “folding stability dG” value worked out at 5.2 kJ/mol.

As to DIEITTNGEEDAKRVIKELQKRNLEYHAEVHGNQWVIKVR [I28A], the “folding stability dG” value was determined as 4.35 kJ/mol.

As to DIEITTNGEEDAKRVIKELQKRNLEYHQEVHGNQWVIKVR [I28Q], the “folding stability dG” value stood at 0.536 kJ/mol.

For the variant DIEITTNGEEDAKRVIKELQKRNLEYHYEVHGNQWVIKVR [I28Y], the “folding stability dG” value turned out to be 6.18 kJ/mol.

For DIEITTNGEEDAKRVIKELQKRNLEYHEEVHGNQWVIKVR [I28E], the “folding stability dG” value is -0.665 kJ/mol.

For the variant DIEITTNGEEDAKRVIKELQKRNLEYHVEVHGNQWVIKVR [I28V], the “folding stability dG” value worked out at 10.6 kJ/mol.

With DIEITTNGEEDAKRVIKELQKRNLEYHTEVHGNQWVIKVR [I28T], the “folding stability dG” value is 4.58 kJ/mol.

Turning to DIEITTNGEEDAKRVIKELQKRNLEGHIEVHGNQWVIKVR [Y26G], the “folding stability dG” value came to 3.02 kJ/mol.

Consider DIEITTNGEEDAKRVIKELQKRNLEWHIEVHGNQWVIKVR [Y26W], for which the “folding stability dG” value was determined as 8.16 kJ/mol.

In the case of DIEITTNGEEDAKRVIKELQKRNLEPHIEVHGNQWVIKVR [Y26P], the “folding stability dG” value was 2.05 kJ/mol.

As to DIEITTNGEEDAKRVIKELQKRNLEMHIEVHGNQWVIKVR [Y26M], the “folding stability dG” value came out at 4.74 kJ/mol.

In the case of DIEITTNGEEDAKRVIKELQKRNLETHIEVHGNQWVIKVR [Y26T], the “folding stability dG” value was determined as 1.26 kJ/mol.

Take DIEITTNGEEDAKRVIKELQKRNLEFHIEVHGNQWVIKVR [Y26F]: the “folding stability dG” value amounted to 10.6 kJ/mol.

DIEITTNGEEDAKRVIKELQKRNLESHIEVHGNQWVIKVR [Y26S]: the “folding stability dG” value was 0.0209 kJ/mol.

As to DIEITTNGEEDAKRVIKELQKRNLEHHIEVHGNQWVIKVR [Y26H], the “folding stability dG” value was 3.71 kJ/mol.

DIEITTNGEEDAKRVIKELQKRNLEVHIEVHGNQWVIKVR [Y26V]: the “folding stability dG” value was 5.96 kJ/mol.

For the variant DIEITTNGEEDAKRVIKELQKRNLELHIEVHGNQWVIKVR [Y26L], the “folding stability dG” value is 5.66 kJ/mol.

With DIEITTNGEEDAKRVIKELQKRNLEIHIEVHGNQWVIKVR [Y26I], the “folding stability dG” value is 6.4 kJ/mol.

DIEITTNGEEDAKRVIKELQKRNLEAHIEVHGNQWVIKVR [Y26A]: the “folding stability dG” value turned out to be 4.5 kJ/mol.

Turning to DIEITTNGEEDAKRVIKELQKRNLSYHIEVHGNQWVIKVR [E25S], the “folding stability dG” value was 11.2 kJ/mol.

Turning to DIEITTNGEEDAKRVIKELQKRNLTYHIEVHGNQWVIKVR [E25T], the “folding stability dG” value was determined as 11.1 kJ/mol.

With DIEITTNGEEDAKRVIKELQKRNLRYHIEVHGNQWVIKVR [E25R], the “folding stability dG” value came out at 10.8 kJ/mol.

DIEITTNGEEDAKRVIKELQKRNLWYHIEVHGNQWVIKVR [E25W]: the “folding stability dG” value is 10.6 kJ/mol.

With DIEITTNGEEDAKRVIKELQKRNLQYHIEVHGNQWVIKVR [E25Q], the “folding stability dG” value came to 10.9 kJ/mol.

DIEITTNGEEDAKRVIKELQKRNLYYHIEVHGNQWVIKVR [E25Y]: the “folding stability dG” value turned out to be 10.2 kJ/mol.

In the case of DIEITTNGEEDAKRVIKELQKRNLVYHIEVHGNQWVIKVR [E25V], the “folding stability dG” value was determined as 10.8 kJ/mol.
